Patent publication EP4707300A1 (Beijing Wisdomab Biotechnology Co., Ltd, dated 2026)
Changes are numbered by the printed parent chain.

T1: cynomolgus monkey IL-15 (mfIL-15+mfIL-15Rα complex), tag on IL-15Rα not stated (cynomolgus monkey (Macaca fascicularis), UniProt P40221 49-162; Q13261 31-128)
T1 construct: also called monkey IL-15+IL-15Rα superagonist
T1 chain 1: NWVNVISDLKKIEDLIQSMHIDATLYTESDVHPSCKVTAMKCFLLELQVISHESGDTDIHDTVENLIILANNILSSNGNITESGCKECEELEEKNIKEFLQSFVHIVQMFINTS
T1 chain 2: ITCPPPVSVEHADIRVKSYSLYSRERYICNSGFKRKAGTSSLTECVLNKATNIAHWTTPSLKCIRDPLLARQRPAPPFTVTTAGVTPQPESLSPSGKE

B1: anti-human IL-15 monoclonal antibody R26H10 (antibody, V domains shown)
VH: QVTLKESGPVLVKPTETLTLTCTVSGFSLTTYAVHWIRQPPGKALEWLGVIWGAGSTDYNPSFMSRLTISKDTSKSQVVLTMTNMDPVDTATYYCAKNAAYYVMDYWGQGTTVTVSS
VL: EIVLTQSPGTLSLSPGERATLSCRASQSVIYSYLAWYQQKPGQAPRLLIYAASKLASGIPDRFSGSGSGTDFTLTISRLEPEDFAVYYCQQRASYPLTFGQGTKVEIK
notes: Humanized mutant of R6E11 with a fully human light chain; captured by anti-human IgG (Fc) in SPR and detected with anti-human IgG in ELISA
B2: anti-human IL-15 monoclonal antibody R4G4VH+R22F11VK (antibody, V domains shown)
VH: EVQLVQSGAEVKKPGESLKISCKVSGYFFTTYWIGWVRQMPGKGLEYMGIIYPGDSDTRYSPSFQGQVTISADKSISTAYLQWSSLKASDTAMYYCARGGHWNAFDIWGQGTLVTVSS
VL: B1 VL with Y31G, A51S, R92H, A93Y, Y95T, L97G
notes: Mutant of R1A3; it was captured by anti-human IgG (Fc) in SPR and detected with anti-human IgG in ELISA, so a human Fc is implied; also called R4G4VH+R22FVK
B3: anti-human IL-15 monoclonal antibody R2H2VH+R22F11VK (antibody, V domains shown)
VH: B2 VH with A104S, I107T
VL: B1 VL with Y31G, A51S, R92H, A93Y, Y95T, L97G
notes: Mutant of R1A3; it was captured by anti-human IgG (Fc) in SPR and detected with anti-human IgG in ELISA, so a human Fc is implied; also called R2H2VH+R22FVK
B4: mouse anti-human IL-15 monoclonal antibody R6E11 (antibody, V domains shown)
VH: EVKLKESGPSLVQPSQSLSITCTVSGFSLTTYAVHWVRQSPGKGLEWLGVIWGAGSTDYNAAFMSRLSITKDNSKSQVFFKMNSLQADDTAIYFCAKNGAYYVMDYWGQGTSVTVSS
VL: EIVLTQSPAIMSASPGEKVTITCSASSSVSYMHWFQQRPGTSPKLWIYSTSNLASGVPARFSGSGSGTSYSLTISRMEAEDAATYYCQQRSSYPLTFGAGTKLEIK
notes: Mouse variable regions from a mouse immune phage library
B5: anti-human IL-15 monoclonal antibody R1A3 (antibody, V domains shown)
VH: B2 VH with I107F
VL: EIVLTQSPGTLSLSPGERATLSCRASQSVSSSYLAWYQQKPGQAPRLLIYGASRRATGIPDRFSGSGSGTDFTLTISRLEPEDFAVYYCQQFDASQTFGQGTKLEISR
notes: Found from a fully human Fab phage library
B6: anti-human IL-15 monoclonal antibody AMG714 (antibody, V domains shown)
VH: B2 VH with H101N, A104C, I107Y
VL: B5 VL with Q91R, F92Y, D93G, A94S, Q96H

Assays:
[1] = target: human IL-15 (hIL-15+hIL-15Rα complex), tag on IL-15Rα not stated (human (homo sapiens)) (UniProt P40933); test: cell-based or functional assay
[2] = target: human IL-15 (hIL-15+hIL-15Rα-His complex) (human (homo sapiens)) (UniProt P40933); test: cell-based or functional assay
[3] = target: cynomolgus monkey IL-15 (mfIL-15+mfIL-15Rα complex), tag on IL-15Rα not stated (cynomolgus monkey (Macaca fascicularis)) (UniProt P40221); test: SPR (Biacore T200), as in Example 2.2
[4] = target: human IL-15 (hIL-15+hIL-15Rα complex), tag on IL-15Rα not stated (human (homo sapiens)) (UniProt P40933); test: SPR (Biacore T200), as in Example 2.2
[5] = target: human IL-15 (hIL-15+hIL-15Rα complex), tag on IL-15Rα not stated (human (homo sapiens)) (UniProt P40933); test: SPR (Biacore T200), as in Example 2.2; remark: listed apart in the source
[6] = target: human IL-15 (hIL-15+hIL-15Rα complex), tag on IL-15Rα not stated (human (homo sapiens)) (UniProt P40933); test: SPR (Biacore T200), antibody captured by anti-human IgG Fc, complex as analyte, 1:1 model
[7] = target: T2, human IL-15 (hIL-15+hIL-15Rα complex), tag on IL-15Rα not stated (human (homo sapiens), UniProt P40933 49-162; Q13261 31-128); test: cell-based or functional assay
[8] = target: human IL-15 (hIL-15+hIL-15Rα-His complex) (human (homo sapiens), UniProt P40933 49-162; Q13261 31-128); test: cell-based or functional assay
human IL-15 (hIL-15+hIL-15Rα-His complex), sequence (P40933 49-162 limits assumed, chain 1 of 2): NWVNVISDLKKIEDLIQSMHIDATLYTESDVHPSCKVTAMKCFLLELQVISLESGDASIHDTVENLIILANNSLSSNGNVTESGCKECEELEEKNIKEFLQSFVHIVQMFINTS
human IL-15 (hIL-15+hIL-15Rα-His complex), sequence (Q13261 other isoform, or with tags, fused parts or gaps limits assumed, chain 2 of 2): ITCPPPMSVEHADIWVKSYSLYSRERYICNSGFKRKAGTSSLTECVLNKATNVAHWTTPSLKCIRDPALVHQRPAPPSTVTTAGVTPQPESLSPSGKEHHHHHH

[9] = target: T2, human IL-15 (hIL-15+hIL-15Rα complex), …; test: SPR (Biacore T200), as in Example 2.2
[10] = target: T2, human IL-15 (hIL-15+hIL-15Rα complex), …; test: SPR (Biacore T200), as in Example 2.2; remark: listed apart in the source
[11] = target: T1, cynomolgus monkey IL-15 …; test: SPR (Biacore T200), as in Example 2.2
[12] = target: cynomolgus monkey IL-15 (mfIL-15+mfIL-15Rα-His complex) (cynomolgus monkey (Macaca fascicularis), UniProt P40221 49-162 (Chlorocebus aethiops entry)); test: ELISA, complex coated at 1 µg/mL, anti-human IgG-HRP detection
[13] = target: T3, mouse IL-15 (mIL-15+mIL-15Rα-mFc1 complex) (mouse (Mus musculus), UniProt P48346 49-162); test: as above
T3 construct: also called mIL-15+mIL-15Rα-mFe1 complex
T3 sequence (P48346 49-162 limits assumed, chain 1 of 2): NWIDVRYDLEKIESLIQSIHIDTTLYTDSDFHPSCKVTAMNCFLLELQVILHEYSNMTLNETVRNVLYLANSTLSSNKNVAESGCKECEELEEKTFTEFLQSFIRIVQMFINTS
T3 sequence (chain, as listed by the source limits assumed, chain 2 of 2): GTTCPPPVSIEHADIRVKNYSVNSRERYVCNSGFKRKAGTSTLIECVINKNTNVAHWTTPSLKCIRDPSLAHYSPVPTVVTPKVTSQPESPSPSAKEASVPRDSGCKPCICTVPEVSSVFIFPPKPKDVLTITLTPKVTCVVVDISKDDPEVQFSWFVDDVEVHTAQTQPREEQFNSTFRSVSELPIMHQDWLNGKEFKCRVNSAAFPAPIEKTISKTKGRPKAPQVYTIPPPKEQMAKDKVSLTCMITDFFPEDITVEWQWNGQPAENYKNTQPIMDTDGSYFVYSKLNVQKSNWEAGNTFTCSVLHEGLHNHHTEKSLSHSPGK

[14] = target: T2, human IL-15 (hIL-15+hIL-15Rα complex), …; test: SPR (Biacore T200), as in Example 2.2; remark: listed apart in the source
[15] = target: T2, human IL-15 (hIL-15+hIL-15Rα complex), …; test: SPR (Biacore T200), as in Example 2.2; remark: listed apart in the source
[16] = target: T2, human IL-15 (hIL-15+hIL-15Rα complex), …; test: SPR (Biacore T200), antibody captured by anti-human IgG Fc, complex as analyte, 1:1 model

Row | Molecule | IC50(nM), inhibition of IL-15-induced SEAP secretion by HEK-Blue IL-2 cells [7] [nM] | IC50(nM), inhibition of IL-15-driven proliferation of NK92 cells (Cell Titer-Glo) [8] [nM] | Kd [10] [nM] | koff [10] [s⁻¹] | kon [10] [M⁻¹ s⁻¹] | Kd [11] [nM] | koff [11] [s⁻¹] | kon [11] [M⁻¹ s⁻¹] | binding result [12] | binding result [13] | Kd [14] [nM] | koff [14] [s⁻¹] | kon [14] [M⁻¹ s⁻¹] | further results
1 | anti-human IL-15 monoclonal antibody CALY-002 |  |  |  |  |  |  |  |  |  |  |  |  |  | IC50(nM), inhibition of IL-15-induced SEAP secretion by HEK-Blue IL-2 cells [1]: 3.23 nM; IC50(nM), inhibition of IL-15-driven proliferation of NK92 cells (Cell Titer-Glo) [2]: 0.106 nM; Kd [3]: 0.148 nM; koff [3]: 0.000188 s⁻¹; kon [3]: 1.27e+06 M⁻¹ s⁻¹; Kd [4]: 0.201 nM; koff [4]: 0.000207 s⁻¹; kon [4]: 1.03e+06 M⁻¹ s⁻¹; Kd [5]: 0.337 nM; koff [5]: 0.000235 s⁻¹; kon [5]: 697000 M⁻¹ s⁻¹; Kd [6]: 0.239 nM; koff [6]: 0.000319 s⁻¹; kon [6]: 1.34e+06 M⁻¹ s⁻¹
2 | B1 | 0.646 | 0.133 | 1.13 | 0.000236 | 208000 | 99.9 | 0.021 | 210000 | binds | no binding |  |  |  | Kd [9]: 1.22 nM; koff [9]: 0.000308 s⁻¹; kon [9]: 252000 M⁻¹ s⁻¹
3 | B2 | 0.312 | 0.109 | 0.435 | 0.000196 | 450000 | 0.448 | 0.000172 | 384000 | binds | no binding | 0.346 | 0.00029 | 838000 | 
4 | B3 | 0.397 | 0.119 | 0.57 | 0.000204 | 357000 | 0.463 | 0.000171 | 365000 | binds | no binding | 0.379 | 0.000299 | 791000 | 
5 | B4 |  |  |  |  |  |  |  |  |  |  |  |  |  | Kd [15]: 0.689 nM; koff [15]: 0.000267 s⁻¹; kon [15]: 387000 M⁻¹ s⁻¹; Kd [9]: 0.983 nM; koff [9]: 0.000399 s⁻¹; kon [9]: 406000 M⁻¹ s⁻¹
6 | B5 | 0.634 | 0.126 | 0.612 | 0.00038 | 621000 | 0.722 | 0.000398 | 552000 |  | no binding | 0.352 | 0.000548 | 1.56e+06 | Kd [16]: 0.381 nM; koff [16]: 0.000537 s⁻¹; kon [16]: 1.41e+06 M⁻¹ s⁻¹
7 | B6 |  |  |  |  |  | 2.12 | 0.00124 | 583000 |  |  |  |  |  | 
